The record followed here is patent publication US20250375505A1, “COMPOSITIONS AND METHODS FOR MODIFYING BILE ACIDS TO REGULATE LIPID AND STEROID METABOLISM” (The Regents of the University of California, priority 2021, published 2025).

Test [1] deals with tauro- (TCA, TCDCA) or glyco- (GCA, GCDCA) bile acids. In words: Deconjugation by E. coli C41-pLys expressing putative Turicibacter bsh genes (LC-MS). Format: cell-based. The procedure: Control is E. coli with same expression vector but expressing non-bile-modifying gene. d, same as c, but with GCA and GCDCA instead of tauro-bile acids. e, Quantification of percent remaining (compared to media controls) of conjugated bile acid (TCA, TCDCA, GCA, GCDCA) after 24 h growth with E. coli expressing the noted Turicibacter bsh gene. n=3 independent cultures, *p<0.05, **p<0.005, ***p<0.0005 using one sample t-test comparison with 100% remaining. BSH nomenclature indicates homolog group (e.g. III) and isolate of origin (e.g. MOL361).
Conjugation increases bile acid solubility and emulsification ability^45, while deconjugation reverses these effects, leading to decreased dietary lipid absorption. To identify Turicibacter bile salt hydrolase (bsh) genes responsible for the strain-specific differences in bile deconjugation, the study first searched our assembled genomes for annotations of “choloylglycine hydrolase,” the broad category that includes these genes. […] Isolates within the same phylogenetic and phenotypic subgroups largely shared similar sequences (FIG. 11a, b). To assay the function of the strain-specific putative bsh genes, the study cloned and individually expressed one representative sequence from each of the eight putative choloylglycine hydrolase groups in E. coli C41-pLys and measured the ability of these engineered bacteria to perform the deconjugations the study observed in the native Turicibacter. The study cultured the individual E. coli strains to stationary phase in the presence of two tauro-(TCA, TCDCA) or glyco-(GCA, GCDCA) bile acids, then measured their ability to deconjugate these bile acid pools. […] Collectively, these findings reveal that Turicibacter strains contain a range of bile salt hydrolases with deconjugation preferences for different bile acids.
For bile species quantification, an internal spike-in standard of 100 mM chenodeoxycholic acid-D4 (CDCA-D4, Sigma) was added to initial culture supernatants as a normalization reference. Area under the curve from reconstructed ion chromatograms was used to quantify the abundances of each species.

Test [2] deals with CA, CDCA, and DCA. As to conditions: expressed in E. coli C41-pLys.
Method: Escherichia coli C41-pLys (Lucigen) was used for characterizing putative bile modification genes, which were expressed off the pET21+plasmid. E. coli was grown acrobically shaking at 37° C. C in Luria Broth (LB, 1% NaCl, 1% tryptone, 0.5% yeast extract) supplemented with 100 μg mL^−1 ampicillin. Expression of genes was induced by addition of 100 μM IPTG.
In vitro characterization of bile transformations by engineered E. coli or B. thetaiotaomicron strains were performed by growing cells in respective media conditions described above supplemented with 0.5 mM (total combined concentration) of the noted bile species. Cells were grown to stationary phase (shaking at 37° C.), then frozen at −80° C. until further processing. Cells were then thawed, pelleted (5 minutes at 16,000×g), and the supernatant was removed to a new microcentrifuge tube. Three volumes of methanol was added, then the mixture was vigorously mixed for 30-60 seconds and incubated (room temperature, 15 minutes). Mixtures were centrifuged (5 minutes, 16,000×g), the supernatant removed to a clean microcentrifuge tube and dried in a vacuum concentrator. The dried residue was treated with methanol/water/formic acid (50/50/0.1, all by volume) then vigorously mixed and centrifuged as described above. […] The effluent from the column was passed through an electrospray ion source (capillary voltage 42V, capillary temperature 275° C., sheath gas flow 15 L min^−1, spray voltage 5 kV, and −15 kV conversion dynode with −1.2 k V multipliers) connected to a linear ion trap mass spectrometer (Thermo LTQ) scanning from m/z 95-1000 in the positive ion mode. Spectra were recorded and analyzed with instrument-manufacturer supplied software. Confirmation of proposed elemental compositions was achieved using the same chromatography and ion source configuration with the spectra recorded by scanning on an orbitrap mass spectrometer (Thermo LTQ XL).
[3] abbreviates: expressed in E. coli C41-pLys, grown with two tauro- (TCA, TCDCA) or glyco- (GCA, GCDCA) bile acids.

B1: BSH (group III): bile salt hydrolase group III from Turicibacter sanguinis 1E2, SEQ ID NO: 3 (protein, listed as Turicibacter sanguinis)
chain: MCTGLCLSTKDGKHLFGRNLDVPASYNQAVQIVPRNFKWLNVATQETITSKYACIAMGIVIDNHPLLFDGVNEKGLAGGGLNFTHFAKFSSTAVKDKISLSASDFVYWVLSTFSSLSELKETLPSVILTSIPFKPDLPVAGLHWIFTDKTGESIVIEYMEDGMHIHDNPVGVLTNDPTFDWQLTNLSQYVTLSCKTPQPEEMGNLLVKPFGHGLGMCGIPGDGSPAARFVRTVFFRDAVVGADDEISGVTAFFNVLSEVTVMKGSEIDPDGSMNFTVYKSAMCQESQTYYYTDYYNRRINAVKLTPDTMNADHITTFPYLGKQDICYQN
For the molecule B1, the “bile salt hydrolase (deconjugation) activity” value (from here on “bile salt hydrolase”) in test [1] (setting [3]) is recorded as “moderate activity on TCDCA”.

B2: BSH (group IV): bile salt hydrolase group IV from Turicibacter sanguinis MOL361, SEQ ID NO: 4 (protein, listed as Turicibacter sanguinis)
chain: MCTALSLTAKDGSHLFGRNMDIEYSFNQSILLTPRRFDYKNRATGEMNQTKYAIIGMGTIIDEHPCYAELFNEKGLAAAGLNFPNYAHWDEKAIEGKTNIPPYDLVLWVTSNFETVKEVKEALKDVVLVDVPVNEQTPIAPLHWMICDKTGESIVVEKTVNGLSVMDNKVGVLTNAPTFDWHLTNLTQYMGLTSTQPKDITLGEQELHPLGQGLGAFSLPGDYSSPSRFVKAAFLRNNIDYANVNYSGISEFFHILNGVAMVRGSVVTPQHLNDITLYTSCMDQERGIYYYNTYTNHTISSINMHNEDLDAKEIKSFKFNDEFAVNLQN
Turning to B2, the “bile salt hydrolase” value in test [1] (setting [3]) was “tauro-specific”.

B3: BSH (group I): bile salt hydrolase group I from Turicibacter sanguinis MOL361, SEQ ID NO: 1 (protein, listed as Turicibacter sanguinis)
chain: MCTGLSLVTKDNKHLFGRNLDVPATYGQAVHIVPRNYDWFNIVSDETYTSKYACIGMGIVVDRLPLLFDAVNEKGLAGAGLNFTHFAKFNEKAVDGKTNISGSTFLYWALSNFSNLDELKEALKQLIITNIPVKEGLPVAGLHWMFTDLSGKSIVIEYMEDGMHVYDNPVGALTNDPTFPWHLTNLCQYVTLDTKTPAPKQFGEYVAKPFGHGLNMCGIPGDASPAARFVRTVYFRDTVVEADDEVSGVSAFFQVLTGVTVIKGSEIDPNGDMNYTVYKSCMCQESGTYYYTDYKNRRISAVCLSKADLDGKEIISFEYQGKQDILFQN
With B3, the “bile salt hydrolase” value in test [1] (setting [3]) was “deconjugates both glyco- and tauro-conjugates”.

B4: BSH (group II): bile salt hydrolase group II from Turicibacter sanguinis H121, SEQ ID NO: 2 (protein, listed as Turicibacter sanguinis)
chain: MCTGLSLTTKDGKHFFGRNLDVPASYGQSVHIIPRNFNWLNVVNGETLASKYACIGMGIVVDNHPLLFDAVNEKGLAGGGLNFTHFAKFNENAIDGKINISASDFVYWALSNFADLNELRQALENLVLTNIPFEHELPVAGLHWMFTDLSGRSIVIENMADGMHIHENPVGVLTNDPTFDWHLTNLRQYVTLEKATPAPKQMGDLLLHPYGHGLGMCGIPGDASPAARFVRTVFFRDSIVEANDEISGVTAFLNVLTGVTVIKGSEVDPDGSMNYTVYKSAMCQESGTYYYTDYYNRRINAVKLSNANLDSKEITSFPYQGEQDILFQN
Regarding B4, the “bile salt hydrolase” value in test [1] (setting [3]) was “activity on TCDCA and GCDCA”; in test [1] (expressed in E. coli, presented with the combined four bile acids), “blunted”.

B5: 7α-HSDH homolog from MOL361: 7-alpha hydroxysteroid dehydrogenase homolog of MOL361, locus tag HLK68_RS02750, SEQ ID NO: 9, expressed in E. coli C41-pLys (protein, listed as Turicibacter sanguinis)
chain: MRKLENAIALVTSSTRGIGLACAKKLASEGAIVYMGVRRLEVTQEICDEVAKEGLKMKPVFFDAYNIDSYETMVEEVIREQGKIDILVNNFGTGRPEVDLDLVSGDEKAFFDILEANIGSVYRISKLVIPHMIKQGKGSIVNISSIGGTVPDISRIGYGVSKAGVNNITQQIAMQYARYNIRCNAVLPGLTATDAALDNMPEQFIKSFLSHVPLNRMGTPEDMANAVLFFASDDSSYVTGDIMEVSGGYHLGTPQYADFVGRKVVEEK
As to B5, the “dehydrogenation of CA” value in test [2] (grown in CA) is on record as “removed the mass equivalent of two hydrogens from CA”. Also, the “dehydrogenation of CDCA” value in test [2] (grown in CDCA) is reported as “Background transformation by E. coli prevented clear evidence of CDCA dehydrogenation”. Besides, in test [2] (grown in DCA), the “dehydrogenation of DCA” value is reported as “did not act on DCA”.
